Results taken from the supplement of paper PMC10567573.

B1: ADD1 (parent)
chain: GEGTGSPPKWQIGEQEFEALMRML

Variants of: B1
Experiment: protein stability index of a GFP-peptide fusion (GPS, HEK-293T) (PSI 1-6); higher = more stable
Conditions: c terminus: a fixed tail appended
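Note: lentivirally expressed fusions sorted by FACS into six bins by GFP to DsRed ratio, PSI derived from sequencing read proportions per bin multiplied by bin number.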

First: GEGMGSPPKWQIGEQEFEALMRML [T4M]
Second: GEGTGSPPKWQIPEQEFEALMRML [G13P]
The protein stability index of the first is lower: 3.01 for the first, 3.74 for the second.

First: GEGTGSPPKWQIAEQEFEALMRML [G13A]
Second: GEGTGSPPKWQIIEQEFEALMRML [G13I]
The protein stability index of the first is higher: 3.85 for the first, 2.92 for the second.

First: GEGTGSPPKWQIREQEFEALMRML [G13R]
Second: GEGTGSPPKWQILEQEFEALMRML [G13L]
The protein stability index of the first is higher: 2.99 for the first, 2.84 for the second.

First: GEGTGSPPKWQIFEQEFEALMRML [G13F]
Second: GEGTGSPPKWQIVEQEFEALMRML [G13V]
The protein stability index of the first is higher: 2.69 for the first, 2.5 for the second.

GEGTGSPPKWQISEQEFEALMRML [G13S] and GEGTGSPPKWQICEQEFEALMRML [G13C] are the same in protein stability index: 3.22 for the first, 3.22 for the second.

First: GEGTGSPPKWQIMEQEFEALMRML [G13M]
Second: GEGTGSPPKAQIGEQEFEALMRML [W10A]
The protein stability index of the first is lower: 2.94 for the first, 3.71 for the second.

Going from GEGTGSPPKSQIGEQEFEALMRML [W10S] to GEGTGSPPKKQIGEQEFEALMRML [W10K], the protein stability index falls from 4.2 to 3.57.

Going from GEGTGSPPKEQIGEQEFEALMRML [W10E] to GEGTGSPPKPQIGEQEFEALMRML [W10P], the protein stability index falls from 4.28 to 3.81.

First: GEGTGSPPIWQIGEQEFEALMRML [K9I]
Second: GEGTGSPPFWQIGEQEFEALMRML [K9F]
The protein stability index of the first is lower: 2.58 for the first, 2.8 for the second.

Compared with GEGTGSPPLWQIGEQEFEALMRML [K9L], GEGTGSPPHWQIGEQEFEALMRML [K9H] is higher in protein stability index: 2.34 for the first, 3.08 for the second.

Compared with GEGTGSPPAWQIGEQEFEALMRML [K9A], GEGTGSPPQWQIGEQEFEALMRML [K9Q] is lower in protein stability index: 3.76 for the first, 3.25 for the second.

Compared with GEGTGSPPPWQIGEQEFEALMRML [K9P], GEGTGSPPCWQIGEQEFEALMRML [K9C] is lower in protein stability index: 3.42 for the first, 2.28 for the second.

Compared with GEGTGSPPNWQIGEQEFEALMRML [K9N], GEGTGSPPWWQIGEQEFEALMRML [K9W] is lower in protein stability index: 3.53 for the first, 2.63 for the second.

First: GEGTGSPPMWQIGEQEFEALMRML [K9M]
Second: GEGTGSPPKWQIGEQDFEALMRML [E16D]
The protein stability index of the first is lower: 2.93 for the first, 3.52 for the second.

First: GEGTGSPPKWQIGEQGFEALMRML [E16G]
Second: GEGTGSPPKWQIGEQVFEALMRML [E16V]
The protein stability index of the first is higher: 2.5 for the first, 1.6 for the second.

Going from GEGTGSPPKWQIGEQKFEALMRML [E16K] to GEGTGSPPKWQIGEQYFEALMRML [E16Y], the protein stability index falls from 2.53 to 1.71.

Compared with GEGTGSPPKWQIGEQSFEALMRML [E16S], GEGTGSPPKWQIGEQRFEALMRML [E16R] is lower in protein stability index: 3.06 for the first, 2.51 for the second.

Going from GEGTGSPPKWQIGEQWFEALMRML [E16W] to GEGTGSPPKWQIGEQCFEALMRML [E16C], the protein stability index rises from 2.54 to 2.75.

Compared with GEGTGSPPKWQIGEQTFEALMRML [E16T], GEGTGFPPKWQIGEQEFEALMRML [S6F] is lower in protein stability index: 2.4 for the first, 1.88 for the second.

Going from GEGTGNPPKWQIGEQEFEALMRML [S6N] to GEGTGPPPKWQIGEQEFEALMRML [S6P], the protein stability index rises from 2.8 to 2.95.

Compared with GEGTGLPPKWQIGEQEFEALMRML [S6L], GEGTGIPPKWQIGEQEFEALMRML [S6I] is lower in protein stability index: 3.03 for the first, 2.75 for the second.

First: GEGTGCPPKWQIGEQEFEALMRML [S6C]
Second: GEGTGWPPKWQIGEQEFEALMRML [S6W]
The protein stability index of the first is higher: 2.75 for the first, 2.19 for the second.

Compared with GEGTGYPPKWQIGEQEFEALMRML [S6Y], GEGTGQPPKWQIGEQEFEALMRML [S6Q] is higher in protein stability index: 2.59 for the first, 2.85 for the second.

Going from GEGTGAPPKWQIGEQEFEALMRML [S6A] to GEGTGSPPKWQIGEQECEALMRML [F17C], the protein stability index rises from 2.87 to 3.33.

Going from GEGTGSPPKWQIGEQEWEALMRML [F17W] to GEGTGSPPKWQIGEQEKEALMRML [F17K], the protein stability index rises from 3.6 to 3.88.

Compared with GEGTGSPPKWQIGEQEHEALMRML [F17H], GEGTGSPPKWQIGEQEVEALMRML [F17V] is lower in protein stability index: 4.32 for the first, 3.84 for the second.

First: GEGTGSPPKWQIGEQELEALMRML [F17L]
Second: GEGTGSPPKWQIGEQEFEDLMRML [A19D]
The protein stability index of the first is lower: 3.37 for the first, 4.11 for the second.

Compared with GEGTGSPPKWQIGEQEFEELMRML [A19E], GEGTGSPPKWQIGEQEFEKLMRML [A19K] is lower in protein stability index: 4.04 for the first, 2.69 for the second.

First: GEGTGSPPKWQIGEQEFEGLMRML [A19G]
Second: GEGTGSPPKWQIGEQEFERLMRML [A19R]
The protein stability index of the first is lower: 3.22 for the first, 3.59 for the second.

First: GEGTGSPPKWQIGEQEFEYLMRML [A19Y]
Second: GEGTGSPPKWQIGEQEFEFLMRML [A19F]
The protein stability index of the first is higher: 3.09 for the first, 2.67 for the second.

Going from GEGTGSPPKWQIGEQEFECLMRML [A19C] to GEGTGSMPKWQIGEQEFEALMRML [P7M], the protein stability index falls from 3.43 to 2.33.

First: GEGTGSYPKWQIGEQEFEALMRML [P7Y]
Second: GEGTGSGPKWQIGEQEFEALMRML [P7G]
The protein stability index of the first is lower: 2.14 for the first, 2.52 for the second.

First: GEGTESPPKWQIGEQEFEALMRML [G5E]
Second: GEGTHSPPKWQIGEQEFEALMRML [G5H]
The protein stability index of the first is higher: 3.21 for the first, 3.12 for the second.

Compared with GEGTKSPPKWQIGEQEFEALMRML [G5K], GEGTQSPPKWQIGEQEFEALMRML [G5Q] is higher in protein stability index: 2.15 for the first, 3.49 for the second.

Compared with GEGTSSPPKWQIGEQEFEALMRML [G5S], GEGTVSPPKWQIGEQEFEALMRML [G5V] is higher in protein stability index: 3.01 for the first, 3.09 for the second.

Compared with GEGTISPPKWQIGEQEFEALMRML [G5I], GEGTYSPPKWQIGEQEFEALMRML [G5Y] is higher in protein stability index: 2.74 for the first, 3.02 for the second.

First: MEGTGSPPKWQIGEQEFEALMRML [G1M]
Second: KEGTGSPPKWQIGEQEFEALMRML [G1K]
The protein stability index of the first is lower: 2.71 for the first, 2.91 for the second.

First: SEGTGSPPKWQIGEQEFEALMRML [G1S]
Second: VEGTGSPPKWQIGEQEFEALMRML [G1V]
The protein stability index of the first is higher: 2.99 for the first, 2.49 for the second.

First: CEGTGSPPKWQIGEQEFEALMRML [G1C]
Second: YEGTGSPPKWQIGEQEFEALMRML [G1Y]
The protein stability index of the first is lower: 2.88 for the first, 3.13 for the second.

Going from TEGTGSPPKWQIGEQEFEALMRML [G1T] to GEGTGSPPKWQIGEQEFFALMRML [E18F], the protein stability index falls from 2.94 to 1.93.

Going from GEGTGSPPKWQIGEQEFAALMRML [E18A] to GEGTGSPPKWQIGEQEFNALMRML [E18N], the protein stability index falls from 2.76 to 2.47.

Compared with GEGTGSPPKWQIGEQEFRALMRML [E18R], GEGTGSPPKWQIGEQEFQALMRML [E18Q] is higher in protein stability index: 2.07 for the first, 3.22 for the second.

Compared with GEGTGSPPKWQIGEQEFCALMRML [E18C], GEGTGSPPKWQIGEQEFDALMRML [E18D] is higher in protein stability index: 2.82 for the first, 3.69 for the second.

Going from GEGTGSPPKWQIGEQEFKALMRML [E18K] to GEGTGSPPKWQIGEQEFWALMRML [E18W], the protein stability index falls from 2.9 to 1.85.

Going from GEVTGSPPKWQIGEQEFEALMRML [G3V] to GETTGSPPKWQIGEQEFEALMRML [G3T], the protein stability index rises from 3.41 to 3.54.

Compared with GEHTGSPPKWQIGEQEFEALMRML [G3H], GEYTGSPPKWQIGEQEFEALMRML [G3Y] is higher in protein stability index: 2.94 for the first, 3.63 for the second.

Compared with GEDTGSPPKWQIGEQEFEALMRML [G3D], GEATGSPPKWQIGEQEFEALMRML [G3A] is higher in protein stability index: 3.19 for the first, 3.42 for the second.
